Source: patent publication US20230257444A1, “FUSION PROTEIN AND COMBINATIONS THEREOF” (Agency for Science, Technology and Research, priority 2020, published 2023)

What was measured:
SC5314 Candida albicans = test: In vivo mouse monotherapy survival model (haematogenously disseminated candidiasis); design: species or system Balb/c mice
Description: 9 week old female Balb/c mice (InVivos, Singapore) were injected intraperitoneally with 1, 2 or 4 mg hDectin1-Fc in groups of 8 and the drug was allowed to distribute within the mice till its peak concentration at 2 hours based on the pharmacokinetic data. The mice were then injected intravenously with 0.5, 0.25 or 0.1 milion SC5314 Candida albicans cells to achieve a haematogenously disseminated candidiasis model. Another set of mice were injected with 0.5, 1, 2 mg hDectin1-Fc followed by intravenous injection with SC5314 Candida albicans 2 hours later. […] The mice were observed daily and moribund mice were euthanized and counted as dead the following day. Kaplan-Meier survival plots were made to track the survival overtime of the mice. Statistical analysis of the difference between mice treated with hDectin1-Fc or untreated was done with the Mantel-Cox log rank test.
To examine the effect of hDectin1-Fc passive immunization against reducing the fatality of haematogenously disseminated candidiasis, a Balb/c murine model of hDectin1-Fc at various doses in relation to Candida albicans inoculum was used. […] An untreated group without hDectin1-Fc but infected with the respective inoculum of Candida albicans was used as a control in each experimental set (FIG. 15). Survival in each group was monitored twice daily until all the mice had died or there was survival of 2 weeks from the last death. Moribund mice were euthanized and counted as part of the following day. […] The negative effect on survival of a high dose of hDectin1-Fc in relation to fungal inoculum is most apparent in the 4 mg hDectin1-Fc dose with 0.1 million Candida albicans (FIG. 15C) and 2 mg hDectin1-Fc with 0.05 million Candida albicans inoculum (FIG. 15D). […] The proximity between the 2 mg and 1 mg curves have a growing divergence as the fungal burden is reduced from 0.5 to 0.05 million (FIG. 15A-D).

FcγRIIa = target: T1, FcγRIIa (Homo sapiens, UniProt P12318, H167R); test: Surface plasmon resonance: binding to immobilised Fc receptor; conditions: SPR, steady state
T1 construct: soluble ectodomains of FcR from R&D Systems; purchased R&D Systems 1330-CD-050/CF
T1 sequence (P12318 34-217 H167R limits assumed): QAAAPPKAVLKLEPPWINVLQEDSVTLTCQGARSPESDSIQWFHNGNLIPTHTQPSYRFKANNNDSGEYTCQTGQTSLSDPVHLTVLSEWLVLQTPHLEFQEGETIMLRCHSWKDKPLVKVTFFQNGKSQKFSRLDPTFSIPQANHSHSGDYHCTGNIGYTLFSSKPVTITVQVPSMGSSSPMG
Description: (§1) A BIAcore T200 SPR Biosensors (GE Healthcare) was used to assay the interaction of soluble ectodomains of FcR from R&D Systems with hDectin1-Fc and IgG1. Amine coupling via N-hydroxysuccinimide ester was formed on a CM5 sensor chip surface according to a procedure recommended by the manufacturer. Ectodomains were immobilized at acidic pH, resulting in the following densities: FcγRI (#1257-FC-050): 1919 RU, FcγRIIa (#1330-CD-050/CF):1766 RU, FcγRIIb/c (#1875-CD-050): 1972 RU, FcγRIIIa (#4325-FC-050): 2275 RU, FcγRIIIb (#1597-FC-050/CF): 2393 RU, FcRn (#8639-FC-050): 2836. A range of hDectin1-Fc/IgG1 concentrations was injected into flow cells at a flow rate of […], with a contact and dissociation time of 300 and 900 seconds, respectively. After each assay cycle, the sensor chip surface was regenerated using 10 mM NaOH. Binding response was recorded as resonance units (RU; 1 RU=1 pg/mm^2) continuously, with background binding automatically subtracted. Due to the polyclonal nature of the hDectin1-Fc/IgG1 recombinant proteins used, kinetic constants (kon, koff, t1/2) were not determined, and the KD was calculated by analyzing the concentration-dependence of the steady-state signal reached at the end of the injection using BIA evaluation version 3 software (GE Healthcare) and Scrubber version 2 software (BioLogic Software, Campbell, Australia). The steady-state response was plotted against the concentration of hDectin1-Fc/IgG1 and fitted using Origin software.
(§2) Antibody mediated immune activation depends on the strength of binding and affinity of the Fc to the various Fcγ receptors. Binding to the neonatal receptor FcRn is also important for the half-life in serum and the transcytosis across endothelial cells into various tissues. Surface plasmon resonance was used to evaluate the binding of the Immunoglobulin G's Fc of hDectin1-Fc to the various Fc receptors (FcγRI, FcγRIIa, FcγRIIb, FcγRIIIa, FcγRIIIb and FcRn) present on immune cells by flowing free hDectin1-Fc of various concentrations over immobilised Fc receptors (FIG. 11A-F). […] High affinity FcγRI(CD64) is expressed on macrophages, monocytes and neutrophils and low affinity FcγRIIIa (CD16a) is expressed on natural killer cells, monocytes, macrophages and neutrophils. Both CD64 and CD16a activating receptors have Immunoreceptor Tyrosine based Activation Motif (ITAM) signalling domain. FcγRI strongly binds IgG opsonized targets to trigger phagocytosis and a proinflammatory response of TNFα, IFNγ and production of oxidative species. FcγRIIIa likewise activate degranulation, phagocytosis, and oxidative burst.

FcγRIIb = target: T2, FcγRIIb (Homo sapiens, UniProt P31994); test: as above; conditions: SPR, steady state
T2 construct: soluble ectodomains of FcR from R&D Systems; purchased R&D Systems 1875-CD-050
T2 sequence (P31994 43-217 limits assumed): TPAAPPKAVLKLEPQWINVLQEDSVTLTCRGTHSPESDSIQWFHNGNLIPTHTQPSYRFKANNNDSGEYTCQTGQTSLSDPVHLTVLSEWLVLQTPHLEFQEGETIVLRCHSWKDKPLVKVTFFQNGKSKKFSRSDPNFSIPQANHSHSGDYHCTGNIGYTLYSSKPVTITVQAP
Description: as §1, §2

FcRn = target: T3, FcRn (Homo sapiens, UniProt P55899); test: as above; conditions: SPR
T3 construct: soluble ectodomains of FcR from R&D Systems; purchased R&D Systems 8639-FC-050
Description: as §1, §2

FcγRIIIa = target: T4, FcγRIIIa (Homo sapiens, UniProt P08637, F176V); test: as above; conditions: SPR
T4 construct: soluble ectodomains of FcR from R&D Systems; purchased R&D Systems 4325-FC-050
Description: as §1, §2

FcγRIIIb = target: T5, FcγRIIIb (Homo sapiens, UniProt O75015); test: as above; conditions: SPR, steady state
T5 construct: soluble ectodomains of FcR from R&D Systems; purchased R&D Systems 1597-FC-050/CF
Description: as §1, §2

FcγRI = target: T6, FcγRI (Homo sapiens, UniProt P12314); test: as above; conditions: SPR
T6 construct: soluble ectodomains of FcR from R&D Systems; purchased R&D Systems 1257-FC-050
Description: as §1, §2

T6 sequence (P12314 16-292 limits assumed): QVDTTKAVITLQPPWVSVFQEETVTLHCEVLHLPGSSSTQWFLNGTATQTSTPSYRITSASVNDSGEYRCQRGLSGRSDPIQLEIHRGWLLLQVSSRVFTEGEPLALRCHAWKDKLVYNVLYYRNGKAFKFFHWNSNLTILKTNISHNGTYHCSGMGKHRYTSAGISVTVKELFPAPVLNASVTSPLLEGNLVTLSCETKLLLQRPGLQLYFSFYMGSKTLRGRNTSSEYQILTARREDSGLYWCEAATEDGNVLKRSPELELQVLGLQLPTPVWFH
T3 sequence (P55899 24-297 limits assumed): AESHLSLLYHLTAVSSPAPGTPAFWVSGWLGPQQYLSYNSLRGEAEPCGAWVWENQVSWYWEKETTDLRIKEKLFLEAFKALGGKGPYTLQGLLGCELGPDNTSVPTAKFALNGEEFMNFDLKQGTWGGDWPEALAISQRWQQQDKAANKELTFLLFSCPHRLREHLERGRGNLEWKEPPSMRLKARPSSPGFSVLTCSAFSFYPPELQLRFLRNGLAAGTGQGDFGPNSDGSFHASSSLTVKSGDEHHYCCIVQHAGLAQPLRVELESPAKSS
T3 sequence (P61769 21-119 partner): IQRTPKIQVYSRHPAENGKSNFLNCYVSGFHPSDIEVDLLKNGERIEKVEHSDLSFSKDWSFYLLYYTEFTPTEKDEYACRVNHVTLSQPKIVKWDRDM
T4 sequence (P08637 17-208 F176V limits assumed): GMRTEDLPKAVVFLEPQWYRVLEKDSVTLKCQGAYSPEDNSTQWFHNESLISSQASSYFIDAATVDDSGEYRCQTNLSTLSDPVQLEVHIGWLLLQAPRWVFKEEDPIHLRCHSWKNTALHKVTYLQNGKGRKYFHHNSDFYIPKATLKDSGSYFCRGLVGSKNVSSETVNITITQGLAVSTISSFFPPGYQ
T5 sequence (O75015 17-200 limits assumed): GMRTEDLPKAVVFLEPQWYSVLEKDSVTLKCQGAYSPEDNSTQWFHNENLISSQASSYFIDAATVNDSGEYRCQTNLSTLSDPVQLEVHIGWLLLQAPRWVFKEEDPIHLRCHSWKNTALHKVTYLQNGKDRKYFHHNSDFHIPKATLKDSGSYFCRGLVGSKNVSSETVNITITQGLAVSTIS

With “hDectin1-Fc: soluble dimeric fusion protein: human Dectin-1 receptor polypeptide (aa 73-247) fused to human IgG1 Fc via hinge; SEQ ID NO: 5” the survival curve (SC5314 Candida albicans; 0.05 mg hDectin1-Fc, subacute inoculum of 0.05 million Candida albicans cells) was “prominent shift in the survival curve”, the “survival (rate of death vs untreated group)” value (SC5314 Candida albicans; 2 mg hDectin1-Fc i.p., 0.05 million Candida albicans i.v. (FIG. 15D)) was “rate of death was greater than the corresponding untreated group” and the “survival (rate of death vs untreated group)” value (SC5314 Candida albicans; 4 mg hDectin1-Fc i.p., 0.1 million Candida albicans i.v. (FIG. 15C)) was “rate of death was greater than the corresponding untreated group”. The survivability (SC5314 Candida albicans; hDectin1-Fc at the appropriate dose, passive immunization 2 hours before challenge) was “able to improve survivability”, the “survival, 1 mg dose versus 2 mg dose” value (SC5314 Candida albicans; lethal infection model, 0.5 million Candida albicans cells (FIG. 15A)) was “marginal optimal therapeutic effect of the 1 mg dose over the 2 mg dose” and the “binding to FcγRIIa (Binding Constant KD screen)” value (FcγRIIa) was “bind to FcγRI, FcγRIIIa and FcRn only”. The “binding to FcγRIIb (Binding Constant KD screen)” value (FcγRIIb) was “bind to FcγRI, FcγRIIIa and FcRn only”, the “KD for FcRn compared with Herceptin” value (FcRn) was “moderately weaker binding” and the “binding to FcRn (Binding Constant KD screen)” value (FcRn; steady state) was “able to interact with and bind to”. For the same substance, the “KD for FcγRIIIa compared with Herceptin” value (FcγRIIIa) was “moderately weaker binding”, the “binding to FcγRIIIa (Binding Constant KD screen)” value (FcγRIIIa; steady state) was “able to interact with and bind to” and the “binding to FcγRIIIb (Binding Constant KD screen)” value (FcγRIIIb) was “bind to FcγRI, FcγRIIIa and FcRn only”. For the same substance, the “KD for FcγRI compared with Herceptin” value (FcγRI) was “moderately weaker binding” and the “binding to FcγRI (Binding Constant KD screen)” value (FcγRI; steady state) was “able to interact with and bind to”.
